± gives the uncertainty stated by the source.

The source of these data is the Human Domainome abundance scans (Beltran et al. 2025).

This series is described as follows: abundance fitness (aPCA) (normalised: wild type 0, dead -1); higher = more abundant; growth selection in yeast, the domain comes from the species named. To be noted: Homo sapiens.
Consider “E3 ubiquitin-protein ligase NEDD4-like H214R, Q96PU5”, for which the abundance fitness is -0.005 ± 0.068.
With “E3 ubiquitin-protein ligase NEDD4-like H214S, Q96PU5” the figure was -0.035 ± 0.057; with “E3 ubiquitin-protein ligase NEDD4-like H214T, Q96PU5”, -0.062 ± 0.067; with “E3 ubiquitin-protein ligase NEDD4-like H214V, Q96PU5”, -0.026 ± 0.058.
Next, “E3 ubiquitin-protein ligase NEDD4-like H214W, Q96PU5”: -0.068 ± 0.066; “E3 ubiquitin-protein ligase NEDD4-like H214Y, Q96PU5”: 0.035 ± 0.088.
Next, “E3 ubiquitin-protein ligase NEDD4-like H222C, Q96PU5”: -0.052 ± 0.094.
Take “E3 ubiquitin-protein ligase NEDD4-like H222D, Q96PU5”: the abundance fitness came out at 0.071 ± 0.067.
Turning to “E3 ubiquitin-protein ligase NEDD4-like H222E, Q96PU5”, the abundance fitness is -0.013 ± 0.083.
Next, “E3 ubiquitin-protein ligase NEDD4-like H222F, Q96PU5”: -0.052 ± 0.089; “E3 ubiquitin-protein ligase NEDD4-like H222G, Q96PU5”: -0.07 ± 0.06; “E3 ubiquitin-protein ligase NEDD4-like H222I, Q96PU5”: -0.251 ± 0.1.
For “E3 ubiquitin-protein ligase NEDD4-like H222K, Q96PU5”, the abundance fitness was determined as 0.251 ± 0.1.
“E3 ubiquitin-protein ligase NEDD4-like H222L, Q96PU5” showed an abundance fitness of -0.088 ± 0.056.
Regarding “E3 ubiquitin-protein ligase NEDD4-like H222M, Q96PU5”, the abundance fitness stood at 0.173 ± 0.093.
With “E3 ubiquitin-protein ligase NEDD4-like H222N, Q96PU5” the figure was -0.027 ± 0.11; with “E3 ubiquitin-protein ligase NEDD4-like H222P, Q96PU5”, -0.133 ± 0.063; with “E3 ubiquitin-protein ligase NEDD4-like H222Q, Q96PU5”, -0.022 ± 0.1.
Next, “E3 ubiquitin-protein ligase NEDD4-like H222R, Q96PU5”: -0.016 ± 0.057; “E3 ubiquitin-protein ligase NEDD4-like H222T, Q96PU5”: 0.081 ± 0.076; “E3 ubiquitin-protein ligase NEDD4-like H222V, Q96PU5”: -0.045 ± 0.059.
In the case of “E3 ubiquitin-protein ligase NEDD4-like H222W, Q96PU5”, the abundance fitness was -0.218 ± 0.071.
With “E3 ubiquitin-protein ligase NEDD4-like H222Y, Q96PU5” the figure was -0.171 ± 0.11.
Next, “E3 ubiquitin-protein ligase NEDD4-like K202A, Q96PU5”: -0.185 ± 0.06; “E3 ubiquitin-protein ligase NEDD4-like K202C, Q96PU5”: -0.253 ± 0.097; “E3 ubiquitin-protein ligase NEDD4-like K202D, Q96PU5”: -0.491 ± 0.064.
Next, “E3 ubiquitin-protein ligase NEDD4-like K202E, Q96PU5”: -0.295 ± 0.095; “E3 ubiquitin-protein ligase NEDD4-like K202F, Q96PU5”: -0.49 ± 0.11.
On to “E3 ubiquitin-protein ligase NEDD4-like K202G, Q96PU5”, for which the abundance fitness is -0.482 ± 0.06.
Next, “E3 ubiquitin-protein ligase NEDD4-like K202H, Q96PU5”: -0.173 ± 0.078; “E3 ubiquitin-protein ligase NEDD4-like K202I, Q96PU5”: -0.193 ± 0.13.
Next, “E3 ubiquitin-protein ligase NEDD4-like K202L, Q96PU5”: -0.205 ± 0.074; “E3 ubiquitin-protein ligase NEDD4-like K202M, Q96PU5”: -0.496 ± 0.1; “E3 ubiquitin-protein ligase NEDD4-like K202N, Q96PU5”: -0.01 ± 0.11.
Take “E3 ubiquitin-protein ligase NEDD4-like K202P, Q96PU5”: the abundance fitness was -0.814 ± 0.12.
Next, “E3 ubiquitin-protein ligase NEDD4-like K202Q, Q96PU5”: -0.252 ± 0.096.
With “E3 ubiquitin-protein ligase NEDD4-like K202R, Q96PU5” the figure was -0.216 ± 0.062; with “E3 ubiquitin-protein ligase NEDD4-like K202T, Q96PU5”, -0.308 ± 0.083; with “E3 ubiquitin-protein ligase NEDD4-like K202V, Q96PU5”, -0.408 ± 0.059.
Next, “E3 ubiquitin-protein ligase NEDD4-like K202W, Q96PU5”: -0.838 ± 0.089; “E3 ubiquitin-protein ligase NEDD4-like K202Y, Q96PU5”: -0.289 ± 0.11; “E3 ubiquitin-protein ligase NEDD4-like L190A, Q96PU5”: -0.186 ± 0.075.
“E3 ubiquitin-protein ligase NEDD4-like L190C, Q96PU5” displayed an abundance fitness of 0.09 ± 0.076.
Next, “E3 ubiquitin-protein ligase NEDD4-like L190D, Q96PU5”: 0.066 ± 0.1; “E3 ubiquitin-protein ligase NEDD4-like L190F, Q96PU5”: 0.051 ± 0.095; “E3 ubiquitin-protein ligase NEDD4-like L190G, Q96PU5”: -0.178 ± 0.059.
Next, “E3 ubiquitin-protein ligase NEDD4-like L190H, Q96PU5”: -0.141 ± 0.11; “E3 ubiquitin-protein ligase NEDD4-like L190I, Q96PU5”: 0.125 ± 0.1.
With “E3 ubiquitin-protein ligase NEDD4-like L190K, Q96PU5” the figure was 0.08 ± 0.076; with “E3 ubiquitin-protein ligase NEDD4-like L190M, Q96PU5”, -0.407 ± 0.097; with “E3 ubiquitin-protein ligase NEDD4-like L190N, Q96PU5”, -0.031 ± 0.087.
“E3 ubiquitin-protein ligase NEDD4-like L190P, Q96PU5” displayed an abundance fitness of -0.479 ± 0.067.
Next, “E3 ubiquitin-protein ligase NEDD4-like L190Q, Q96PU5”: -0.556 ± 0.13; “E3 ubiquitin-protein ligase NEDD4-like L190R, Q96PU5”: -0.024 ± 0.057; “E3 ubiquitin-protein ligase NEDD4-like L190S, Q96PU5”: -0.02 ± 0.056.
Next, “E3 ubiquitin-protein ligase NEDD4-like L190T, Q96PU5”: -0.182 ± 0.074; “E3 ubiquitin-protein ligase NEDD4-like L190V, Q96PU5”: -0.053 ± 0.053; “E3 ubiquitin-protein ligase NEDD4-like L190W, Q96PU5”: -0.503 ± 0.068.
With “E3 ubiquitin-protein ligase NEDD4-like L190Y, Q96PU5” the figure was -0.094 ± 0.088; with “E3 ubiquitin-protein ligase NEDD4-like L195A, Q96PU5”, -0.072 ± 0.22.
Substance “E3 ubiquitin-protein ligase NEDD4-like L195F, Q96PU5” showed an abundance fitness of -0.902 ± 0.38.
With “E3 ubiquitin-protein ligase NEDD4-like L195G, Q96PU5” the figure was -0.581 ± 0.28; with “E3 ubiquitin-protein ligase NEDD4-like L195S, Q96PU5”, -0.182 ± 0.33.
With “E3 ubiquitin-protein ligase NEDD4-like L195V, Q96PU5” the figure was 0.143 ± 0.17; with “E3 ubiquitin-protein ligase NEDD4-like L206A, Q96PU5”, 0.124 ± 0.059.
With “E3 ubiquitin-protein ligase NEDD4-like L206C, Q96PU5” the figure was 0.003 ± 0.09.
Take “E3 ubiquitin-protein ligase NEDD4-like L206D, Q96PU5”: the abundance fitness came to 0.015 ± 0.095.
Next, “E3 ubiquitin-protein ligase NEDD4-like L206E, Q96PU5”: 0.044 ± 0.084; “E3 ubiquitin-protein ligase NEDD4-like L206G, Q96PU5”: 0.059 ± 0.059.
With “E3 ubiquitin-protein ligase NEDD4-like L206I, Q96PU5” the figure was -0.159 ± 0.13.
In turn, “E3 ubiquitin-protein ligase NEDD4-like L206K, Q96PU5” yielded an abundance fitness of 0.126 ± 0.11.
Next, “E3 ubiquitin-protein ligase NEDD4-like L206M, Q96PU5”: -0.083 ± 0.096.
With “E3 ubiquitin-protein ligase NEDD4-like L206N, Q96PU5” the figure was -0.016 ± 0.11; with “E3 ubiquitin-protein ligase NEDD4-like L206P, Q96PU5”, -0.707 ± 0.11.
Next, “E3 ubiquitin-protein ligase NEDD4-like L206Q, Q96PU5”: 0.021 ± 0.091; “E3 ubiquitin-protein ligase NEDD4-like L206R, Q96PU5”: 0.04 ± 0.056; “E3 ubiquitin-protein ligase NEDD4-like L206S, Q96PU5”: 0.065 ± 0.054.
In turn, “E3 ubiquitin-protein ligase NEDD4-like L206T, Q96PU5” yielded an abundance fitness of 0.011 ± 0.08.
Next, “E3 ubiquitin-protein ligase NEDD4-like L206V, Q96PU5”: -0.056 ± 0.062; “E3 ubiquitin-protein ligase NEDD4-like L206W, Q96PU5”: -0.034 ± 0.077.
With “E3 ubiquitin-protein ligase NEDD4-like L226A, Q96PU5” the figure was 0.021 ± 0.072; with “E3 ubiquitin-protein ligase NEDD4-like L226C, Q96PU5”, 0.063 ± 0.071.
“E3 ubiquitin-protein ligase NEDD4-like L226D, Q96PU5” came in with an abundance fitness of -0.023 ± 0.088.
“E3 ubiquitin-protein ligase NEDD4-like L226E, Q96PU5” yielded an abundance fitness of -0.203 ± 0.092.
